Data reported in patent publication US20150064134A1.

How the values were obtained:
Assay in all cases: cell-based or functional assay
PKG1α(h) (human) = PKG1α(h) (human) (UniProt Q13976)
EphA3(h) (human) = biological target: T1, EphA3(h) (human) (UniProt P29320)
T1 sequence (looked up): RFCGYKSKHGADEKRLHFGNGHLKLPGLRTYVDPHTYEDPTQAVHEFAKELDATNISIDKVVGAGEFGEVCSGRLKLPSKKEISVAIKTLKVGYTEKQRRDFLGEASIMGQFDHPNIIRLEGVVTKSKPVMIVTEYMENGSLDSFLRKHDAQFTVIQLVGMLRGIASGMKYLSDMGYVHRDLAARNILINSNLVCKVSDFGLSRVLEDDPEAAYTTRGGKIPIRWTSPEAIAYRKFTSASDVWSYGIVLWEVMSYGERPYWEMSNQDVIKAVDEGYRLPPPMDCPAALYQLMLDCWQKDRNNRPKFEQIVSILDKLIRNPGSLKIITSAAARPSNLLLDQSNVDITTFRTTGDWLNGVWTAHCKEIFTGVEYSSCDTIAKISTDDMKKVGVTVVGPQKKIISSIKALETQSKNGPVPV

DCAMKL2(h) (human) = biological target: T2, DCAMKL2(h) (human) (UniProt Q8N568)
T2 sequence (looked up): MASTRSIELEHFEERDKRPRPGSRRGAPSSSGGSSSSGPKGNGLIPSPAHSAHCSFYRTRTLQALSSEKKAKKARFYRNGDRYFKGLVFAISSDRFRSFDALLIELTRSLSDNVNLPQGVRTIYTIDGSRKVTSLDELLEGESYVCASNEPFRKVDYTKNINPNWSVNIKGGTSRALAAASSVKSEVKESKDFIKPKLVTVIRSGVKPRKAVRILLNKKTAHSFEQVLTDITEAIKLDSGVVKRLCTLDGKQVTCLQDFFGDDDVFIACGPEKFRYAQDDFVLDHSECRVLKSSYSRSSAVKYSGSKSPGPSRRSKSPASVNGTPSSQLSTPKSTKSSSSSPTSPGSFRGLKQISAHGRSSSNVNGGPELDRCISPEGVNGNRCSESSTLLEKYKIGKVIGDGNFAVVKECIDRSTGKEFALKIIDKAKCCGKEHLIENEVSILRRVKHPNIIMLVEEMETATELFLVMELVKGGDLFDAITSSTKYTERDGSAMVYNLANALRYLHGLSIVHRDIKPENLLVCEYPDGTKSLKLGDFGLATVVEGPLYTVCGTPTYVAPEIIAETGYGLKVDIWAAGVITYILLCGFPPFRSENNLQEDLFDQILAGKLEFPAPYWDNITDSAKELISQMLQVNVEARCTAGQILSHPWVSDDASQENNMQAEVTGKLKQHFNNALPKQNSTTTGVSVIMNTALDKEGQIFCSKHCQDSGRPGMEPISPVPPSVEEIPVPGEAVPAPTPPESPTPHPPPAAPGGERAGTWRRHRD

CaMKIIβ(h) (human) = CaMKIIβ(h) (human) (UniProt Q13554)
MLK1(h) (human) = MLK1(h) (human) (UniProt P80192)
TAO1(h) (human) = biological target: T3, TAO1(h) (human) (UniProt Q7L7X3)
T3 sequence (looked up): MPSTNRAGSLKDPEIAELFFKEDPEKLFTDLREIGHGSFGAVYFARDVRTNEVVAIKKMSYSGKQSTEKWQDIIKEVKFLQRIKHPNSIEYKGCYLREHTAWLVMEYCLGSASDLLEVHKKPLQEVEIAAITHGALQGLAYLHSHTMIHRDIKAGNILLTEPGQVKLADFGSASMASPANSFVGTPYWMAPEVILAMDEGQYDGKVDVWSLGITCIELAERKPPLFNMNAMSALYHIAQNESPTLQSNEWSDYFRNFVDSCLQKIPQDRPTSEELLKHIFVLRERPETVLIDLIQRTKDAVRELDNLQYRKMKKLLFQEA

CaMKIδ(h) (human) = CaMKIδ(h) (human) (UniProt Q8IU85)
EphB2(h) (human) = EphB2(h) (human) (UniProt P29323)
Abl(h) (human) = Abl(h) (human) (UniProt P00519)
RIPK2(h) (human) = RIPK2(h) (human) (UniProt O43353)
MARK1(h) (human) = MARK1(h) (human) (UniProt Q9P0L2)
PKG1β(h) (human) = biological target: T4, PKG1β(h) (human) (UniProt Q13976)
T4 sequence (looked up): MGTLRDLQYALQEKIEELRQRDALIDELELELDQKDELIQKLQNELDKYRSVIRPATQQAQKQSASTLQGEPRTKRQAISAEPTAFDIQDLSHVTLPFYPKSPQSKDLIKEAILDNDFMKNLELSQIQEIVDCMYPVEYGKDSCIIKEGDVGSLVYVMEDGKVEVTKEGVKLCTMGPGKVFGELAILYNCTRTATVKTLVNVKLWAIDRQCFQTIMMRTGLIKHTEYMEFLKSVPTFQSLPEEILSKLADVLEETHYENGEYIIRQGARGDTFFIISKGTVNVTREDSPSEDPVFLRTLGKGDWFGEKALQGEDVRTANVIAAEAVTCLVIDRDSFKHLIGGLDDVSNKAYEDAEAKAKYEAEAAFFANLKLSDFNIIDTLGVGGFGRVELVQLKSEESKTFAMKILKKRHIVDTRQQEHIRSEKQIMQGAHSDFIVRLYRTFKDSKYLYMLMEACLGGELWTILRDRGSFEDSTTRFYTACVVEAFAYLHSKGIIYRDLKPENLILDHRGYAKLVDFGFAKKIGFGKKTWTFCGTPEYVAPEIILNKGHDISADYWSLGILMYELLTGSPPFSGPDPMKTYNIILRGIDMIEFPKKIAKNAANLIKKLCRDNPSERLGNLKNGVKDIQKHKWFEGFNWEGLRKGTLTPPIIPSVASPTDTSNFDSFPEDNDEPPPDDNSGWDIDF

Chain of RIPK2(h) (human) (O43353 1-299 limits assumed): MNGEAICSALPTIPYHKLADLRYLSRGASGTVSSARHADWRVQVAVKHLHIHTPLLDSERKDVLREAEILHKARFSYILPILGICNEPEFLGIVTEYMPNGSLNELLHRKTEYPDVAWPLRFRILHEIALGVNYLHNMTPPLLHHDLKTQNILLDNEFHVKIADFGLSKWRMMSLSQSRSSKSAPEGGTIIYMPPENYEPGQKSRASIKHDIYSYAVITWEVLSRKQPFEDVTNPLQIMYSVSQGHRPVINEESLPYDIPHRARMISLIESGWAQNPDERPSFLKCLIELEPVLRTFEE
Chain of Abl(h) (human) (P00519 27-1130 limits assumed): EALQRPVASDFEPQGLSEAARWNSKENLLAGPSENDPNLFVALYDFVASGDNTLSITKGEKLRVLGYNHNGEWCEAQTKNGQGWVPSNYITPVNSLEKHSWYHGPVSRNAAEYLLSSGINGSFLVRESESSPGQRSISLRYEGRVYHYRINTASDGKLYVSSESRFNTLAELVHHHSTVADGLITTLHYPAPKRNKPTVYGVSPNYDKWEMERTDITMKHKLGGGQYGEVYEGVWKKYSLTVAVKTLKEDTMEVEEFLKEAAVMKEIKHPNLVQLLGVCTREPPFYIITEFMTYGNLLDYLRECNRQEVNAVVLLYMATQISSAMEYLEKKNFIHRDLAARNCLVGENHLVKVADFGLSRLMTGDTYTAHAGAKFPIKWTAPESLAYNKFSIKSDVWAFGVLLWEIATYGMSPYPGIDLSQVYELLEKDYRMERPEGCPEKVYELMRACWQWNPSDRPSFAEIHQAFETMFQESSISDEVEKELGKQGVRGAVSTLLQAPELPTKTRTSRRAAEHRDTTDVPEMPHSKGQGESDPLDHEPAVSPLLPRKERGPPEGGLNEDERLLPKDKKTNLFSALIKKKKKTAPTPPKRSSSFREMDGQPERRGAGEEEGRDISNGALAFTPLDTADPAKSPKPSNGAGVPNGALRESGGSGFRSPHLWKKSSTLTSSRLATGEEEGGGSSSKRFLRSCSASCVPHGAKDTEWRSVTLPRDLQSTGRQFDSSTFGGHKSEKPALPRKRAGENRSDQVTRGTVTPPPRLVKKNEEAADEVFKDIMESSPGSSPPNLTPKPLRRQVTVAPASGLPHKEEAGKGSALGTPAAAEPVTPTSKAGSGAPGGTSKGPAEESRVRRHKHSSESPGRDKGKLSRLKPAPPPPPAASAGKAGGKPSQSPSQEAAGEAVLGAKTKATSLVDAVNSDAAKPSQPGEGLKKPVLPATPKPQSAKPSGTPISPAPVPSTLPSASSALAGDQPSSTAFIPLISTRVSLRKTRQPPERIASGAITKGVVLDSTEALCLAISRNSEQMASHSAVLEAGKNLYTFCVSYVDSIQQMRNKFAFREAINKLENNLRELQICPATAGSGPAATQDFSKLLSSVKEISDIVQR
Chain of EphB2(h) (human) (P29323 565-986 limits assumed): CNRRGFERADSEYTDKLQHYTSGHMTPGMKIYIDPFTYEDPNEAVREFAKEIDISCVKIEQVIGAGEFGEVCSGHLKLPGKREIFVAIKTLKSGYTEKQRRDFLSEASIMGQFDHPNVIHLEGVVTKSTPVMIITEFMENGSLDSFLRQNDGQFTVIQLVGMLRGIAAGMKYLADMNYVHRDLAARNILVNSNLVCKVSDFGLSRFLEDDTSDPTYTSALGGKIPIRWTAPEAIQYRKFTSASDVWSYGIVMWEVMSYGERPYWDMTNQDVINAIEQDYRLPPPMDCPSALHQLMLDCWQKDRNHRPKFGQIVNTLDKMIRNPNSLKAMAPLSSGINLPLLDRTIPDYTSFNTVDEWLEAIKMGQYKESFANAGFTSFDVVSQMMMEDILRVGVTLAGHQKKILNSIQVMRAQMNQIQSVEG
Chain of CaMKIIβ(h) (human) (Q13554 whole entry): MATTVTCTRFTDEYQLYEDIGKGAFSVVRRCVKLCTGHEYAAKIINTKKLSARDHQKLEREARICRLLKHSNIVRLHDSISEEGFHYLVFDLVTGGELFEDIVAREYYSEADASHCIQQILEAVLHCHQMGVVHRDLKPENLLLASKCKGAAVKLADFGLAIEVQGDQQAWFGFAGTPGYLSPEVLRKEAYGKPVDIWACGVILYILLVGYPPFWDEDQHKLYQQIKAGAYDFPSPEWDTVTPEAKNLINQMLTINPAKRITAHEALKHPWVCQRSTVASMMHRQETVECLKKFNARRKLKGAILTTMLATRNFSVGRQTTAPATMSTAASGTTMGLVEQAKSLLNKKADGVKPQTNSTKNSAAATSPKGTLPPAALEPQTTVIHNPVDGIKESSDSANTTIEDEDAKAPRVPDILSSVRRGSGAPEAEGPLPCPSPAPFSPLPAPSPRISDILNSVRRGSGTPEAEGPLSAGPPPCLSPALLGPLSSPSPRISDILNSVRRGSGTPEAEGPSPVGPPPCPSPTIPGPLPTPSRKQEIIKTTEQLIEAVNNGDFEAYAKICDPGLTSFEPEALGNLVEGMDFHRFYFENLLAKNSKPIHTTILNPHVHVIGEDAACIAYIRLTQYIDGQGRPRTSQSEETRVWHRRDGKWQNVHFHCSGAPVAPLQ

Row | Substance | % activity at 100 µM (PKG1α(h) (human)) [%] | % activity at 100 µM (EphA3(h) (human)) [%] | % activity at 100 µM (DCAMKL2(h) (human)) [%] | % activity at 100 µM (CaMKIIβ(h) (human)) [%] | % activity at 100 µM (MLK1(h) (human)) [%] | % activity at 100 µM (TAO1(h) (human)) [%] | % activity at 100 µM (CaMKIδ(h) (human)) [%] | % activity at 100 µM (EphB2(h) (human)) [%] | % activity at 100 µM (Abl(h) (human)) [%] | % activity at 100 µM (RIPK2(h) (human)) [%] | % activity at 100 µM (MARK1(h) (human)) [%] | % activity at 100 µM (PKG1β(h) (human)) [%]
1 | MMI-0300 (peptide) | 64 | 6 | 81 | 2 | 40 | 82 | 10 | 18 | 69 | 97 | 132 | 50
2 | MMI-0400 (peptide) | 58 | 12 | 70 | 11 | 33 | 73 | 17 | 22 | 84 | 98 | 120 | 53
3 | MMI-0500 (peptide) | 25 | 33 | 56 | 3 | 43 | 24 | 0 | 70 | 16 | 30 | 110 | 24
